Patent US8414892

How the values were obtained:
[1] = biological target: HLA class I (HLA A, B, C) (human); test: indirect immunofluorescence
[2] = biological target: HLA class I (HLA A, B, C) (human); test: indirect immunofluorescence, U2OS cells recultured at 37 C after antibody binding
[3] = biological target: HLA class I (HLA A, B, C) (human); test: indirect immunofluorescence, U2OS cells
[4] = biological target: monoclonal antibody 8H9; test: FACS inhibition, 5 ug/ml 8H9 on LAN-1 cells
[5] = biological target: 8H9 scFv-human gamma1-CH2-CH3 chimeric antibody (human); test: FACS inhibition, 5 ug/ml 8H9-scFv-Fc on HTB82 cells
[6] = biological target: monoclonal antibody 8H9; test: ELISA, MoAb coated; ++ = OD 1~2
[7] = biological target: monoclonal antibody 8H9; test: FACS inhibition, 5 ug/ml 8H9 on HTB-82 cells
[8] = biological target: UJ 13A; test: ELISA, MoAb coated
[9] = biological target: MoAb R24; test: ELISA, MoAb coated
[10] = biological target: HOPC-1; test: ELISA, MoAb coated
[11] = biological target: FCOPC21; test: ELISA, MoAb coated
[12] = biological target: MoAb 3F8; test: ELISA, MoAb coated
[13] = biological target: MOPC 104E; test: ELISA, MoAb coated
[14] = biological target: MOPC 315; test: ELISA, MoAb coated
[15] = biological target: MOPC 21; test: ELISA, MoAb coated
[16] = biological target: TIB114; test: ELISA, MoAb coated

Sequence of monoclonal antibody 8H9 (VH, as listed by the source limits assumed, chain 1 of 2): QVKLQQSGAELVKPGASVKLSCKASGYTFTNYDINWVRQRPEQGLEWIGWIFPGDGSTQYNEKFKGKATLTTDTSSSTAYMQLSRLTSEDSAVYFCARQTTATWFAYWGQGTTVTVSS
Sequence of monoclonal antibody 8H9 (VL, as listed by the source limits assumed, chain 2 of 2): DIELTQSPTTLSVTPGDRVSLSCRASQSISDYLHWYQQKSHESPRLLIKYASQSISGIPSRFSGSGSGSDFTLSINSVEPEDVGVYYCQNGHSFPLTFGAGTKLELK

anti-HLA A, B, C antibody HB-95 was tested, and the loss of binding after 48 h at 37 C [1] was 85%, the relative immunofluorescence remaining after 48 h [2] was 11% and the loss of binding after 48 h at 37 C [3] was 89%.
“rat anti-8H9 anti-idiotypic monoclonal antibody 2E9” showed a concentration of 2E9 giving almost complete inhibition of 8H9 staining [4] of 10 µg/mL, a concentration of 2E9 without inhibition of 8H9 staining [4] of 2 µg/mL and a concentration of 2E9 giving complete inhibition of 8H9-scFv-Fc staining [5] of 1 µg/mL. It also gave an OD [6] of 1 to 2 od, a concentration of 2E9 giving complete inhibition of 8H9 staining [7] of 10 µg/mL and a concentration of 2E9 without inhibition of 8H9 staining [7] of 2 µg/mL. It also gave an OD [8] of less than 0.5 od, an OD [9] of less than 0.5 od and an OD [10] of less than 0.5 od. It also gave an OD [11] of less than 0.5 od, an OD [12] of less than 0.5 od and an OD [13] of less than 0.5 od. The OD [14] was less than 0.5 od, the OD [15] was less than 0.5 od and the OD [16] was less than 0.5 od.
